Data from publication PMC6028389, “Dedicated surveillance mechanism controls G-quadruplex forming non-coding RNAs in human mitochondria”.

Molecular target: T1, GRSF1 wild type (Homo sapiens, UniProt Q12849 118-480)
T1 sequence: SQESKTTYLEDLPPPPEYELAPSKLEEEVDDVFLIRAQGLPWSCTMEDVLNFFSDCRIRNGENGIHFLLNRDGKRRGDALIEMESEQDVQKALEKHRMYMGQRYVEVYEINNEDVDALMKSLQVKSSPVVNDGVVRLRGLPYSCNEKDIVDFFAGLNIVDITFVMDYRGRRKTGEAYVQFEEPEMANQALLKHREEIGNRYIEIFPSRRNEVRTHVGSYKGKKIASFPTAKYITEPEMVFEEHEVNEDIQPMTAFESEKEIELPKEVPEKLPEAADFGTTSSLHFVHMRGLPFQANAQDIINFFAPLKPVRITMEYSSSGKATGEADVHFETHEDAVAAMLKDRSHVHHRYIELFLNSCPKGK
Assay: EMSA; 75 ug/ml heparin; EMSA: 5 nM RNA, 0-2560 nM protein, 10 mM Tris-HCl pH 8.0, 2.5 mM KCl, 30 mM NaCl, 1 mM EDTA, 0.2 mM DTT, 75 ug/ml heparin, 30 min at 30 C; 7% PAGE
Conditions: protein: recombinant; tags: N-terminal 6xHis-SUMO, cleaved by SUMO protease; label: 5'-32P; predicted secondary structure; G4-forming

B1: tRNA-like (structured_RNA)
RNA: GGGCUGUGACUAGUAUGUUGAGUCCUGUAAGUAGGAGAGUGAUAUUUGAUCAGGAGAACGUGGUUACUAGCACCCA
In the case of B1, the Kd is reported as ~100 nM.
